This series deals with T1, PsrA (Pseudomonas aeruginosa PAO1) (UniProt Q9HZJ9).
T1 sequence: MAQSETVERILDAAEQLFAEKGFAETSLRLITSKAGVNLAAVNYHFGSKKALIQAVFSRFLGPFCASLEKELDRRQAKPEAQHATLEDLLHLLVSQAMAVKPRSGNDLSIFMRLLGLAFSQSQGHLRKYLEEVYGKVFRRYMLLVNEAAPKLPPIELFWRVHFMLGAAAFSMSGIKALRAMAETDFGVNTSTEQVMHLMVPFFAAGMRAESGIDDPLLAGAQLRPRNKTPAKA
Put plainly: EMSA.

On to “GCGCACGGCACGGGGAGTCGTCGTTTTGGAGGTGAGGGATGACGGCTCTGTTTCAGGATATTTTTATAATTATGTGAAAGAAGAGCTTATTTCAACGAAATATGTTTCATATTGCTCGTAAATTCGACGAAAAGAAAATCCGGATATTTACCGGTTATTTAACGTTAATACCAAGGGCCTAATACCAAAGTATTAACGCTGGCATGCCGGCATGTCGTGTTCGGTCGTGGAGCGAGCCGAGCCAGGAACGGTTCTAAGAAACGA (double strand) [PmvfR 17-280 bp]”, for which the binding result is on record as “no binding”.
As for “TGTGCGGTTGTGACAATTCCATGAAACGCCGACAGGCCGCCGCCATGGCCGGGTCCTCGAGCAAGCGCCACAGCGCCCCGCGCAACTCCTGCTCGCGCAACGGCACGCCCAGGCGCATCCCGCAGCCGAGCCGGACCAGCCGTTCGGCATTGTCGAACTGGTCGTGGGCACAGGGCAGCAGCACCTGCGGCACCCCCGCCGCCAAGGCTAGGCTCATGGCGCCGATACCGCCCGGATGGACCAGCCCGGCGCACGATGGCAGCAAGGCTCCCAGTGGCGCGTA (double strand) [PrhlR 11-293 bp]”, the entry is “no binding”; as for “CGCTTCCCTTGATCGGGTCAGGTTGCCGCTACTGTGGAAGAAGCGTCGAGGACTCGATAGATAGCGCCCGAGTGTTTCAACTTGTCTTCTGGATGACGTTTTCATCGGGGAAACCTCCCGTCGGTCAGTGAAGCGCAAGGGCTGGCGTGCGAGGGTGGAATCGGCCGCCGGCTCGCTTTCTGCGCGGCGGGCGCACGGCACGGGGAGTCGTCGTTTTGGAGGTGAGGGATGACGGCTCTGTTTCAGGA (double strand) [PmvfR 223-470 bp]”, “no binding”.
As for “TGGCGATGGGCCGACAGTGAACCCGGGGACCAGGTGTGACTGGGTATTCAGTTCGCATAAAATGTGATCTAGATCACATTTAAACGTTTGCTTACCCTCTAGGACGGGTATCGTACTAGGTGCATCAAACGCTGCGGTCTATTGTTAAGTGGGACTGAAATGTGCCTTTCCGGCACAACGCCAACTCTATAG (double strand) [PlasR 153-344 bp]”, the entry is “binds”; as for “CCTGTCGGCGTTTCATGGAATTGTCACAACCGCACAGTATCGCTTGCGGTAAAGCGGCCCAGGTGGTCGAACGTTGTCATAGGGAGGGGGATGCTCGATGGCTGAAGGCTGCGTCCTGAACGGTGCTGGCATAACAGATAGGGTTGCCATGATTTTGCCGTATCGGCAAGGCTGCGCGCTTGACAGCGTCATACCCCGGGCCAATTCTGCTGTGATGCATTTTATCGATCAGGGCTTACTGCAATGAGGAATGACGGAGGCTTTTTGCTGTGGTGGGACGGTTTGCGTAGCGAGATG (double strand) [PrhlR 258-544 bp]”, “no binding”.

Source of the values: article PMC11233452.
